Blank lines part the entries; values can stand above or below the binder they belong to.
Experiments:
人GPC-3-His(北京义翘神州生物) [1] = target: T1, 人GPC-3-His(北京义翘神州生物) (human, UniProt P51654 25-559); test: affinity and kinetics of Table 2 (table not shown; method not named here, taken as BLI of Example 3.2)
T1 construct: Bought His-tagged protein, coupled to Ni-NTA sensors in the BLI assay; not shown: His tag

人GPC-3-His(北京义翘神州生物) [2] = target: T1, 人GPC-3-His(北京义翘神州生物); test: BLI (ForteBio Octet), human GPC-3-His on Ni-NTA sensor
[3] = target: T2, 人GPC-3抗原 (磷脂酰肌醇蛋白聚糖3, Glypican-3) (human, UniProt P51654 25-559, limits assumed); test: indirect ELISA, GPC-3 antigen coated at 0.2 μg/ml
T2 construct: The immunogen was bought from Sino Biological (北京义翘神州生物); also called GPC-3蛋白
T2 sequence (P51654 25-559 limits assumed): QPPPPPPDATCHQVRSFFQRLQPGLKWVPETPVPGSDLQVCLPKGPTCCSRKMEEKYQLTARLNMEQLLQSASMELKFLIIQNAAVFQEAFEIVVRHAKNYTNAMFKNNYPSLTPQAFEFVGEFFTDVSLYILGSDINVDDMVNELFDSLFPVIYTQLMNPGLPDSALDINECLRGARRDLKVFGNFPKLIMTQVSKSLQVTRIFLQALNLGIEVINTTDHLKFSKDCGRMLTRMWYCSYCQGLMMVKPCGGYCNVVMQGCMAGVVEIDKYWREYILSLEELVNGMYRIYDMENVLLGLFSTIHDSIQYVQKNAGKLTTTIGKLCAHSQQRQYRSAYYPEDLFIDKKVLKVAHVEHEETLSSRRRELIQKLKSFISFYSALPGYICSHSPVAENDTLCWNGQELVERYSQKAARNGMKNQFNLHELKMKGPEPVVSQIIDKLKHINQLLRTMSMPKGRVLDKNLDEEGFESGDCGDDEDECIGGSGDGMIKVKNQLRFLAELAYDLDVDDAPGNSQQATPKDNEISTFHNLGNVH

人GPC-3-His(北京义翘神州生物) [4] = target: T1, 人GPC-3-His(北京义翘神州生物); test: BLI (ForteBio Octet), human GPC-3-His on Ni-NTA sensor, antibody 3.125-100 nM
[5] = target: T2, 人GPC-3抗原 (磷脂酰肌醇蛋白聚糖3, Glypican-3); test: competition ELISA on coated GPC-3 (0.1 μg/ml), competitor GPC-3 antibody-HRP
[6] = target: T2, 人GPC-3抗原 (磷脂酰肌醇蛋白聚糖3, Glypican-3); test: indirect ELISA on coated GPC-3, goat anti-human IgG-HRP detection

T1 sequence (P51654 25-559 limits assumed): as above

Kd (人GPC-3-His(北京义翘神州生物) [1]): < 0.01 nM
B1: 人源化抗体AB13E3 (antibody, V domains shown)
VH: QVQLVQSGAEVKKPGASVKVSCKASGYTFTDYEMHWVKQAPGQGLEWIGAIDPQTGNTAFNQKFKGRVTLTRDKSSSTVYMELSSLRSEDTAVYYCTRFYSLTYWGQGTLVTVSS
VL: DVLMTQSPLSLPVTLGQPASISCRSSQSIVHSNGNTYLQWYLQRPGQSPKLLIYKVSNRFSGVPDRFSGSGSGTYFTLKISRVEAEDVGVYYCFQGSHFPYAFGGGTKVEIK
notes: Humanized from GPC3#4 by CDR grafting; detected with goat anti-human IgG

Kd (人GPC-3-His(北京义翘神州生物) [2]): < 0.01 nM
EC50 [3]: ~0.01 mg/L
Kd (人GPC-3-His(北京义翘神州生物) [4]): 0.00107 nM
koff (人GPC-3-His(北京义翘神州生物) [4]): 1e-07 s⁻¹
kon (人GPC-3-His(北京义翘神州生物) [4]): 624000 M⁻¹ s⁻¹
B2: 鼠单克隆抗体GPC3#4(杂交瘤细胞株DWX-1分泌) (antibody, V domains shown)
VH: QVQLQQSGAELVRPGAPVTLSCKASGYTFTDYEMHWVKQTPVNGLEWIGAIDPQTGNTAFNQKFKGKAILTADKSSSTAYMEVRSLTSEGSAVYYCTRFYSLTYWGQGTLVTVSA
VL: DVLMTQVPLSLPVSLGDQASISCRSSQSIVHSNGNTYLQWYLQKPGQSPKLLIYKVSNRFSGVPDRFSGSGSGTYFTLKISRVEAEDLGVYYCFQGSHFPYAFGGGTKLEIK
notes: Mouse antibody purified from hybridoma DWX-1; also called 鼠源抗体GPC3#4; 鼠单抗GPC3#4

Kd (人GPC-3-His(北京义翘神州生物) [1]): < 0.01 nM
B3: 人源化抗体AB13E1 (antibody, V domains shown)
VH: QVQLVQSGAEVKKPGASVKVSCKASGYTFTDYEMHWVRQAPGQGLEWMGIIDPQTGNTSYAQKFQGRVTMTRDTSTSTVYMELSSLRSEDTAVYYCTRFYSLTYWGQGTLVTVSS
VL: DVVMTQSPLSLPVTLGQPASISCRSSQSIVHSNGNTYLNWFQQRPGQSPRRLIYKVSNRDSGVPDRFSGSGSGTDFTLKISRVEAEDVGVYYCFQGSHFPYAFGGGTKVEIK
notes: Humanized from GPC3#4 by CDR grafting

Kd (人GPC-3-His(北京义翘神州生物) [1]): < 0.01 nM
B4: 人源化抗体AB13E2 (antibody, V domains shown)
VH: QVQLVQSGAEVKKPGASVKVSCKASGYTFTDYEMHWVRQAPGQGLEWIGAIDPQTGNTSYAQKFQGRVTMTRDTSTSTVYMELSSLRSEDTAVYYCTRFYSLTYWGQGTLVTVSS
VL: DVVMTQSPLSLPVTLGQPASISCRSSQSIVHSNGNTYLNWFQQRPGQSPKLLIYKVSNRDSGVPDRFSGSGSGTDFTLKISRVEAEDVGVYYCFQGSHFPYAFGGGTKLEIK
notes: as for B3

Kd (人GPC-3-His(北京义翘神州生物) [1]): < 0.01 nM
EC50 [5]: 0.1 to 1 mg/L
EC50 [6]: 0.001 to 0.01 mg/L
B5: 人源化抗体AB13E4 (antibody, V domains shown)
VH: QVQLVQSGAEVVKPGASVKLSCKASGYTFTDYEMHWVKQTPGQGLEWIGAIDPQTGNTAFNQKFKGRATLTRDKSSSTAYMEVSSLRSEGTAVYYCTRFYSLTYWGQGTLVTVSS
VL: DVLMTQSPLSLPVTLGQPASISCRSSQSIVHSNGNTYLQWYLQKPGQSPKLLIYKVSNRFSGVPDRFSGSGSGTYFTLKISRVEAEDVGVYYCFQGSHFPYAFGGGTKLEIK
notes: Humanized from GPC3#4 by resurfacing; detected with goat anti-human IgG

Kd (人GPC-3-His(北京义翘神州生物) [1]): < 0.01 nM
B6: 人源化抗体AB13E5 (antibody, V domains shown)
VH: QVQLVQSGAEVKKPGASVTLSCKASGYTFTDYEMHWVRQAPGQGLEWMGIIDPQTGNTSYAQKFQGRVTMTRDTSTSTVYMELSSLRSEGSAVYYCTRFYSLTYWGQGTLVTVSS
VL: DVVMTQSPLSLPVTLGDQASISCRSSQSIVHSNGNTYLNWFQQRPGQSPRRLIYKVSNRDSGVPDRFSGSGSGTDFTLKISRVEAEDVGVYYCFQGSHFPYAFGGGTKVEIK
notes: as for B3

Source: patent publication CN109988240A (ANYUAN BIOTECHNOLOGY SHANGHAI CO LTD; PHARMAB SHANGHAI …, dated 2019)
